# Assay results published in publication PMC4020580.
# Target: bovine trypsin (bovine)
row,Substance,stoichiometry of inhibition (SI) of bovine trypsin
1,"α1AT Ser313Cys double-Cys variant (2Cys313), unlabeled (natural protein)",1.1
2,labeled single-Cys S47C α1AT (natural protein),1.1
3,labeled single-Cys S313C α1AT (natural protein),1.1
